Molecular target: C-propeptide of collagen III
Assay: SPR; C-propeptide III immobilised by amine coupling on CM5; 10 mM HEPES pH 7.4, 0.15 M NaCl, 5 mM CaCl2, 0.05% P20, 25 °C

Kd: 0.045 µM
B1: procollagen C-proteinase enhancer-2 with N-terminal 6His-tag (natural protein)
chain: QSPERPVFTCGGILTGESGFIGSEGFPGVYPPNSKCTWKITVPEGKVVVLNFRFIDLESDNLCRYDFVDVYNGHANGQRIGRFCGTFRPGALVSSGNKMMVQMISDANTAGNGFMAMFSAAEPNERGDQYCGGLLDRPSGSFKTPNWPDRDYPAGVTCVWHIVAPKNQLIELKFEKFDVERDNYCRYDYVAVFNGGEVNDARRIGKYCGDSPPAPIVSERNELLIQFLSDLSLTADGFIGHYIFRPKKLPTTTEQPVTTTFPVTTGLKPTVALCQQKCRRTGTLEGNYCSSDFVLAGTVITTITRDGSLHATVSIINIYKEGNLAIQQAGKNMSARLTVVCKQCPLLRRGLNYIIMGQVGEDGRGKIMPNSFIMMFKTKNQKLLDALKNKQC

Reference: PMC10696041
